Consider one molecule from publication PMC6754406, “Ran pathway-independent regulation of mitotic Golgi disassembly by Importin-α” (Nature Communications, 2019).

The target of one experiment is p115-CTD (a.a. 780–930). As to the kind of experiment: Isothermal titration calorimetry (ITC), p115-CTD. Particulars: ITC (MicroCal iTC200), 25 °C, 20 mM HEPES pH 7.4, 1 mM DTT, 50 mM NaCl; one-sites binding model. From the text:
Phosphorylation of GM130 on Ser-25 is correlated with p115 dissociation, with this process appearing to be specific to mitosis and being responsible for reduction of p115-mediated vesicle fusion to Golgi membranes[5]–[7],[9],[10]. The N-terminal region of GM130 and the p115 C-terminus interact[11],[12], so we purified recombinant proteins containing these two regions and then assessed their binding affinity by isothermal titration calorimetry (ITC). The wild type GM130 N-terminal region (a.a. 1-85; hereafter GM130-WT) directly bound p115 (a.a. 780–930; hereafter p115-CTD) (Fig. 1a). Furthermore, we examined if GM130 phosphorylation reduces the binding affinity for p115. […] We found in competition-binding assays that p115-CTD pulldown by GST-GM130-S25D was reduced when we added increasing amounts of Importin-α lacking the IBB domain (a.a. 70–524; hereafter Importin-α(ΔIBB)) (Fig. 1c). […]
To purify p115 (a.a. 780–930), cells containing p115 (a.a. […]) were resuspended in a buffer containing 50 mM K-phosphate (pH 7.4), 150 mM NaCl, and 2 mM β-mercaptoethanol. […] Fractions containing p115 protein were pooled and loaded into SEC (Superdex 75 16/600) and analyzed by SDS–PAGE. […]
Binding affinities of different GM130 proteins to Importin-α and Importin-β were measured by ITC (MicroCal iTC200). […] Protein concentrations were determined spectrophotometrically with respective extinction coefficients. […]

The subject of experiment [1] is Importin-β (HEK293T cell lysate). As to the kind of experiment: GST pulldown of Importin-β from HEK293T cell lysates. It is filed as binding. The procedure:
HEK293T cells were lysed in RIPA buffer containing 50 mM Tris, 150 mM NaCl, 1% NP-40, 1% sodium deoxycholate, 0.1% SDS, 1 mM phenylmethyl sulphonyl fluoride, 1 μg/ml aprotinin, and 1 μg/ml leupeptin. Supernatants were collected after centrifugation at 21,000×g for 10 min at 4 °C. Cell lysates were incubated with 5 µM of GST-GM130-WT, GST-GM130-S25D, or GST-GM130-S25D/K34A, and glutathione-coupled sepharose beads (GE Healthcare). After three pre-washes with buffer containing 150 mM NaCl, proteins were eluted using a buffer containing 50 mM of reduced glutathione. Eluted proteins were analyzed by SDS–PAGE, followed by Western blotting using antibodies against GM130 (Abcam ab52649), Importin-α (R&D Systems MAB6207), and Importin-β (Abcam ab2811). Uncropped scans of Western blots are provided in Supplementary Fig. 7.
Sup ple me ntary Figure 3. GM 130 is resistant to IBB displacement upon in teracting with […]
a-d, a, SE C (Superdex 200) elution profile for full-length Importin-α•GST-GM130-S25D (re d line ), full-length Importin-α (blue line), an d G ST-GM130-WT (green line). […] Th e v o i d volum e (Vo) is indicated. e, Western blotting analysis of Importin-α pull-down by GST-GM130-WT and GST-GM130-S25D from HEK293T ce l l l ys at es. […] Data repres ent mean ± standard deviation from three independent experiments. […]

B1: GM130: GM130 (recombinant N-terminal region), variant not specified at the place (protein)
chain: MWPQPRLPPRPAMSEETRQSKLAAAKKKLREYQQRNSPGVPTGAKKKKKIKNGSNPETTTSGGCHSPEDTPKDNAATLQPSDDTVLPGGVPSPGASLTSMAASQNHDADNVPNLMDETKTFSSTESLRQLSQQLNGLVCESATCVNGEGPASSANLKDLESRYQQLAVALDSSYVTNKQLNITIEKLKQQNQEITDQLEEEKKECHQKQGALREQLQVHIQTIGILVSEKAELQTALAHTQHAARQKEGESEDLASRLQYSRRRVGELERALSAVSTQQKKADRYNKELTKERDALRLELYKNTQSNEDLKQEKSELEEKLRVLVTEKAGMQLNLEELQKKLEMTELLLQQFSSRCEAPDANQQLQQAMEERAQLEAHLGQVMESVRQLQMERDKYAENLKGESAMWRQRMQQMSEQVHTLREEKECSMSRVQELETSLAELRNQMAEPPPPEPPAGPSEVEQQLQAEAEHLRKELEGLAGQLQAQVQDNEGLSRLNREQEERLLELERAAELWGEQAEARRQILETMQNDRTTISRALSQNRELKEQLAELQSGFVKLTNENMEITSALQSEQHVKRELGKKLGELQEKLSELKETVELKSQEAQSLQQQRDQYLGHLQQYVAAYQQLTSEKEVLHNQLLLQTQLVDQLQQQEAQGKAVAEMARQELQETQERLEAATQQNQQLRAQLSLMAHPGEGDGLDREEEEDEEEEEEEAVAVPQPMPSIPEDLESREAMVAFFNSAVASAEEEQARLRGQLKEQRVRCRRLAHLLASAQKEPEAAAPAPGTGGDSVCGETHRALQGAMEKLQSRFMELMQEKADLKERVEELEHRCIQLSGETDTIGEYIALYQSQRAVLKERHREKEEYISRLAQDKEEMKVKLLELQELVLRLVGDRNEWHGRFLAAAQNPADEPTSGAPAPQELGAANQQGDLCEVSLAGSVEPAQGEAREGSPRDNPTAQQIMQLLREMQNPRERPGLGSNPCIPFFYRADENDEVKITVI
Usually Kd stands for the constant that tells how readily two partners part at equilibrium. Read a low Kd as higher affinity. Molecule B1 came in with a Kd on p115-CTD (a.a. 780–930) of roughly 980 nM. Besides, the “Importin-α pulled down more than Importin-β” value in experiment [1] is ~ 10 -fold. In experiment [1] (same acquisition conditions), the “Western blot signal of Importin-β reduced compared to Importin-α FL” value is reported as “more than 10 -fold”.
